The term Kd denotes the concentration at which binding is half-saturated.

The assay deals with N-terminal alkaline phosphatase-tagged RBP (AP-RBP fusion protein) (human, UniProt P02753 19-201). Kind of assay: AP-RBP binding to live COS-1 cells transfected with bovine STRA6, AP activity read-out.

Protocol: The cells were then washed twice with PBS⁺ and fixed in fresh 2% formaldehyde in PBS⁺ at room temperature for 10 min. After 3 more PBS washes, the cells were heated in PBS for 1 h at 65° C. […] The reaction was stopped by washing cells twice with PBS containing 1 mM CaCl₂. The cells were then lysed in 200 μl of cold PBS containing 1% Triton X-100 and protease inhibitors per well. The cell lysates were centrifuged at 3,000 g at 4° C. for 5 min. The supernatants were removed and heated at 65° C. for 1 h. Twenty microliters of the heated lysate were mixed with 200 μl of pNPP (Sigma) and incubated at 37° C. for 1 h for the AP color reaction. The reactions were stopped by adding 50 μl 3 M NaOH and were transferred to a 96-well plate for reading in a microplate reader at 405 nm.

B1: bovine STRA6 (wild-type) (receptor)
chain: MSTQAAGNQTSSGATDSEDSYDSWYIDEPQGGQELQPEGLVPSCQPNVPPSLYHTCLAVLSILVLFLLAMLVRRRQLWPRCGHGRPGLPSPVDFLTGDRPRTVPAAVFMVLFSSLCLLLPTEDPLPFLSLASPPGRDGEAETSRGPWKILALLYYPALYYPLAACATVRHGAAHLLGSLLSWAHLGVQVWQRAECPESPKIYKYYSLLASLPLLLGLGFLSLWYPVQLVRSFGHGAATGSKGLQSSYSEEYLRTLLCQKKLKSSSHTCKRGFASQAWMYFRHSVYIPQQGFRLPLKLVLSVTLTGTAIYQVALLLLVGVVPTIQKVRAGITTDVSYLLAGFGIVLSEDRQEVVELVKHHLWALEVCYISALVLSCLLTFLMLVHSLVTHRTNLRALHRGGALDIGPLTQSPRPSRQAIFCWMSFTAYQTAFTCLGLLVQQILFFLGTLTLAFLVFMPMLHGRNLLLLHYLKSSWPFWLTLALAVTLQNAAAHWAFLDTHHGRPGLTNRRALYAATFLLFPVNVLVGTMVAAWRVLLSALYNAVHLGRMDLSLLPLRAATLDPGYHTYCNFLRMEASQSHPAATAFCALLLRTQRPKPRATPQDGLRLGEEEEGIQLLQTKDLVAKGAGPRARQGRARWGLAYTLLHNPALQAFRKTALPGARPNGAQP
notes: also called RBP receptor; WT
Regarding B1, the Kd was determined as 59 nM.

The record behind these values is patent US20090048196A1 (University of California, published 2009).
